# The nanobody polyreactivity screen of Harvey et al. (2022)
# Test: yeast display, Sf9 membrane polyspecificity reagent, FACS + sequencing; frameworks hold sequencing errors
# Method in brief: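 Galactose induction of a Saccharomyces cerevisiae BJ5465 synthetic nanobody display library ran 36–48 hours. The cells were then stained for 1 hour at 4 °C with 10% biotinylated, detergent-solubilized Sf9 membrane reagent, pulled down on streptavidin microbeads and FACS-sorted into low and high (top ~1%) gates on expression and reagent-binding fluorescence. Labels for polyreactivity follow the gate of origin.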
row,Sequence,polyreactivity (PSR sort gate)
1,QVQLVESGGGLVQAGGSLRLSCAASGSTFFIYAMGWYRQAPGKERELVAVIRNIDVRTYYADSVKGRFTISRDNAKNTVYLQMNSLKPEDTAVYYCAADELLDESVDMYYWGQGTQVTVSS,low polyreactivity
2,QVQLVESGGGLVQAGGSLRLSCAASGSTFFLYMGWYRQAHGKERELVAAITVSGGSTYYADSVKGRFTISRDNAKNTVYLQMNSLKPEDTAVYYCNADWVMRYDYWGQGTQVTVSS,low polyreactivity
3,QVQLVESGGGLVQAGGSLRLSCAASGSTFFNYAMGWYRQAPGKEREFVARIRWRGGSTYYADSVKGRFTISRDNAKNTVYLQMNSLKPEDTAVYYCNADYWGHGGLYDYWGQGTQVTVSS,high polyreactivity
4,QVQLVESGGGLVQAGGSLRLSCAASGSTFFNYAMGWYRQAPGKERELVAAISSSGGRTYYADSVKGRFTISRDNAKNTVYLQMNSLKPEDTAVYYCAASGRKNGMNYWGQGTQVTVSS,high polyreactivity
5,QVQLVESGGGLVQAGGSLRLSCAASGSTFFPYAMGWYRQAPGKERELVAAIRWSGGRTYYADSVKGRFTISRDNAKNTVYLQMNSLKPEDTAVYYCAADKYLYYDYWGQGTQVTVSS,high polyreactivity
6,QVQLVESGGGLVQAGGSLRLSCAASGSTFFPYAMGWYRQAPGKERELVAAIRWSGGRTYYADSVKGRFTISRDNAKNTVYLQMNSLKPEDTAVYYCAAEKYLDYDYWGQGTQVTVSS,high polyreactivity
7,QVQLVESGGGLVQAGGSLRLSCAASGSTFFPYAMGWYRQAPGKERELVAAITSGGRTKYADSVKGRFTISRDNAKNTVYLQMNSLKPEDTAVYYCAARGLIKEYGGPYRRFGYWGQGTQVTVSS,high polyreactivity
8,QVQLVESGGGLVQAGGSLRLSCAASGSTFFPYAMGWYRQAPGKERELVAGISSDGGTSYADSVKGRFTISRDNAKNTVYLQMNSLKPEDTAVYYCAARGLLWYYSWRYYYWGQGTQVTVSS,low polyreactivity
9,QVQLVESGGGLVQAGGSLRLSCAASGSTFFRNAMGWYRQAPGKERELVAAITWSGGSTYYADSVKGRFTISRDNAKNTVYLQMNSLKPEDTAVYYCAAGLSYWTPHYYPFDYWGQGTQVTVSS,low polyreactivity
10,QVQLVESGGGLVQAGGSLRLSCAASGSTFFRYAMGWYRPAPGKEREFVAAISKRGGSTHYADSVKGRFTISRDNAKNTVYLQMNSLKPEDTAVYYCAASSFTSSYNFWGQGTQVTVSS,high polyreactivity
11,QVQLVESGGGLVQAGGSLRLSCAASGSTFFRYAMGWYRQAPGKEREFVAAITWSGTGTYYADSVKGRFTISRDNAENTVYLQMNSLKPEDTAVYYCNAEPFDLWAFYYGYVYGYYHWGQGTQVTVSS,high polyreactivity
12,QVQLVESGGGLVQAGGSLRLSCAASGSTFFRYAMGWYRQAPGKEREFVAAITWSGTGTYYADSVKGRFTISRDNAKNTVYLQMNSLKPEDTAVYYCNADPFDLWAFYYGYVYGYYHWGQGTQVTVSS,high polyreactivity
13,QVQLVESGGGLVQAGGSLRLSCAASGSTFFRYAMGWYRQAPGKEREFVAAITWSGTGTYYADSVKGRFTISRDNAKNTVYLQMNSLKPEDTAVYYCNAEPFDLWAFYYGYVYGYYHWGQGTQVTVSS,high polyreactivity
14,QVQLVESGGGLVQAGGSLRLSCAASGSTFFSNAMGWSRQAPGKERELVAAISWSGGSTYYADSVKGRFTISRDNAKNTVYLQMNSLKPEDTAVYYCAASFWTDYYRYDYWGQGSQVTVSS,low polyreactivity
15,QVQLVESGGGLVQAGGSLRLSCAASGSTFFSNAMGWYRQAPGKERELVATIRFGGGSTYADSVKGRFTISRDNAKNTVYLQMNSLIPEDTAVYYCAADDSDKRYTRSWYGYWGQGTQVTVSS,low polyreactivity
16,QVQLVESGGGLVQAGGSLRLSCAASGSTFFSYTMGWSRQAPGKEWELVAAITWSAGTTYYADSVKGRFTISRDNAKNTVYLQMNSLKPEDTAVYYCNADLSRYPTAVRMDYWGQGTQVTVSS,low polyreactivity
17,QVQLVESGGGLVQAGGSLRLSCAASGSTFFTNAMGWYRQAPAKERELVAVITKRGGSTYYADSVKGRFTISRDKAKNTVYLQMNSLKPEDTAVYYCAARIPKQQGYGYWGHGTQVTVSS,high polyreactivity
18,QVQLVESGGGLVQAGGSLRLSCAASGSTFFVYAMGWYRQAPGNESEFVAAISKSGGSTYYADSEKGRFTISRDNAKNTVYLQMNSLKPEDTAVYYCAKYSGVNSIVGNDYWGQGTQVTVSS,high polyreactivity
19,QVQLVESGGGLVQAGGSLRLSCAASGSTFFVYDMGWYRQAPGKERELVAAISSGGTTTYADSVKGRFTISRDNAKNTVNLQMNSLKPEDTAVYYCNARQYTRPYAFDYWGQGTQVTVSS,low polyreactivity
20,QVQLVESGGGLVQAGGSLRLSCAASGSTFFVYDMGWYRQAPGKEREMVAAISISDGGTYYADSVKWRFTISRDNAKNYVYLQMNSLKPEDTAVYYCADDYSERYFRGYVYLGQGTQVTVSS,low polyreactivity
21,QVQLVESGGGLVQAGGSLRLSCAASGSTFFYNAMGWYRQAPGKERELVAAITVTGTSTYYADSVKGRFTISRDNAKNTVYLQMNSLKPEDTGVYYCNTSLKRRRLRFNYWGQGTQVTVSS,low polyreactivity
22,QVQLVESGGGLVQAGGSLRLSCAASGSTFFYYAMGWYRQAPGKERELVAAISGGGGDTTYADSVKGRFTISRDNAKNTVYLQMNSLKPEDTAVYYCAAVPGSFGSGIFDYWGQGTQATVSS,low polyreactivity

row,Sequence,polyreactivity (PSR sort gate)
1,QVQLVESGGGLVQAGGSLRLSCAASGSTFFYYAMGWYRQAPGKERELVAAITRGSRTKYADSVKGRFTISRDNAKNTVYLQMNSLKPEDTAVYYCAARKNLYPYCYLWWQDYDYWVQGTQVTVSS,high polyreactivity
2,QVQLVESGGGLVQAGGSLRLSCAASGSTFGANAMGWYRQAPGKEREFVAAISSGGRTNYADSVKGRFTISRDNAKNTVYLQMNSLKPEDTAVYYCAASFRRWYFYARHEYGYWGQGTQVTVSS,low polyreactivity
3,QVQLVESGGGLVQAGGSLRLSCAASGSTFGANAMGWYRQAPGKERELVAAITRGVRTHYADSVKGRFTISRDNAKNTVYLQMNSLKPEDTAVYYCNARSYPRWLRYDYWGQGTQVTVSS,low polyreactivity
4,QVQLVESGGGLVQAGGSLRLSCAASGSTFGANSMGWYRQAPGKERELVAAITYSSGSTRYADSVKGRFTISRDNAKTTVYLQMNILKPEDTAVYYCAARRTNYFKLGYWGQGTQVTVSS,high polyreactivity
5,QVQLVESGGGLVQAGGSLRLSCAASGSTFGDYAMGWYRQAPGKERELVAAISARGASTYYADSVKGRFTISRDNAKNTVYLQMNSLKPEDTAVYYCAARYVSSGRRFDYCGQGTQVTVSS,high polyreactivity
6,QVQLVESGGGLVQAGGSLRLSCAASGSTFGFNAMGWYRQAPGKERELLPLFWSGGSTYYADSVKGRFTISRDNAKNTVYLQMYSLKPEDTAVYYCNKDSPPITRYDYWGQGTQVTVSS,low polyreactivity
7,QVQLVESGGGLVQAGGSLRLSCAASGSTFGFYAMGWYRQAPGKERELVAAISRGGSTNYADSVKGRFTISRDNAKNTVYLQMNSLKPEDTAVYYCAKAYHATSDYWGQGTQVTVSS,low polyreactivity
8,QVQLVESGGGLVQAGGSLRLSCAASGSTFGFYAMGWYRQAPGKERELVAAISSAARTYYADSVKGRFTISRDNAKNTVYLQMNSLKPEDTAVYYCSAEAYHWTSYIGYGGVYYWGQGTQVTVSS,low polyreactivity
9,QVQLVESGGGLVQAGGSLRLSCAASGSTFGFYTMGWYRQAPGKERELVAAISRGGGRTYYADSVKGRFTISRDNAKNTVYLQMNSLKPEDTAVYYCAARSTQGRFEYWGQGTQVTVSS,high polyreactivity
10,QVQLVESGGGLVQAGGSLRLSCAASGSTFGGNAMGWYRQAPGKERELVAAIDSGGSTYADSVKGRFTISRDNAKNTVYFQMNSLKPEDTAVYYCAAVWEFVHYWRFDYWGQGTQVTVSS,low polyreactivity
11,QVQLVESGGGLVQAGGSLRLSCAASGSTFGGNAMGWYRQAPGKERELVAAITIGGRTNYADSVKGRFTISRDYAKNTVYLQMNSLKPEDTAVYYCAKDRDQWQDYWGQGTQVTVSS,low polyreactivity
12,QVQLVESGGGLVQAGGSLRLSCAASGSTFGGNAMGWYRQAPGKERELVASISSSGGRTYYADSVKGRFTISRDNAKNTVYLQMNSLKPEDTAVYYCAAKAWYPRVGFLRGGYWGQGTQVTVSS,high polyreactivity
13,QVQLVESGGGLVQAGGSLRLSCAASGSTFGGYAMGWYRPAPGKERELVAAISGGGRTYYADSVKGRFTISRDNAKNTVYLQMNSLKPADTAVYYCNAGYWFGYRLFTGYYWGQGTQVTVSS,low polyreactivity
14,QVQLVESGGGLVQAGGSLRLSCAASGSTFGGYAMGWYRQAPGKERELVAAISSSGGITYYADSVKGRFTISRDNAKNTVYLQMNSLKPEDTAVYYCAAPLGGGARWGRWWLYDSWGQGTQVTVSS,low polyreactivity
15,QVQLVESGGGLVQAGGSLRLSCAASGSTFGGYAMGWYRQAPGKERELVAAITSRGGSTYYADSVKGRFTISRDNAKNTVYLQMNSLKPEDTAVYYCATGLPKRDRRARIRYEYWGQGTQVTVSS,low polyreactivity
16,QVQLVESGGGLVQAGGSLRLSCAASGSTFGGYSMGWYRQAPGKERELVAAITYSGGSTYYADSVKGRFTISGDIAQNTVYLQMKSLKPEDTAFYYCNADDDDALPWWWPYVLDVDYWGQGTQVTVSS,low polyreactivity
17,QVQLVESGGGLVQAGGSLRLSCAASGSTFGGYVMGWYRQAPGKERELVAAISGNGASTTYADSVKGRFTISRDNAKSTFYLQLNSVKPEDTAVYYCGAMYRKAHSDYDYWGQGTQVTVSS,low polyreactivity
18,QVQLVESGGGLVQAGGSLRLSCAASGSTFGHNVMGWYRQSPGKERELVAAISTSGGRTYYADSVKGRFTISRDNAKNTVYLQMNSLKPEDTAVYYCAARVYSTSVVAYYYWGQGTQVTVSS,high polyreactivity
19,QVQLVESGGGLVQAGGSLRLSCAASGSTFGINAMGGYRPAPGKERELVAAITASGGRTYYADSVKGRFTISRDNAKNTVYLQMNSLKPEDTAVYYCAAGFYPYYYWGQGTQVTVSS,low polyreactivity
20,QVQLVESGGGLVQAGGSLRLSCAASGSTFGINAMGWYRQAPGKERELVASITRRGGSTYYADSVKGRFTISRDNAKNTVYLQMNSLKTEDTAVYYFNKTYRYGTPLYDYWGQGTQVTVSS,high polyreactivity
21,QVQLVESGGGLVQAGGSLRLSCAASGSTFGINAMGWYRQSPGKERELVAAISSRGGRTYYADSVKGRFTISRDNAKNTVYLQMNSLKPEDTAVYYCNAVYGRVKGRGVGFKPQYDSWGQGTQVTVSS,high polyreactivity
